Columns and labels:
[1] = target: T1, CYP6Z2 (AgCYP6Z2) (Anopheles gambiae, UniProt A8I285); assay: reverse-phase HPLC, E. coli membranes; format: biochemical; conditions: 10 μM substrate, 0.1 mM NADPH with regeneration system, 5 mM MgCl2, 30°C
T1 construct: with NADPH--cytochrome P450 reductase
T1 sequence (A8I285 1-492): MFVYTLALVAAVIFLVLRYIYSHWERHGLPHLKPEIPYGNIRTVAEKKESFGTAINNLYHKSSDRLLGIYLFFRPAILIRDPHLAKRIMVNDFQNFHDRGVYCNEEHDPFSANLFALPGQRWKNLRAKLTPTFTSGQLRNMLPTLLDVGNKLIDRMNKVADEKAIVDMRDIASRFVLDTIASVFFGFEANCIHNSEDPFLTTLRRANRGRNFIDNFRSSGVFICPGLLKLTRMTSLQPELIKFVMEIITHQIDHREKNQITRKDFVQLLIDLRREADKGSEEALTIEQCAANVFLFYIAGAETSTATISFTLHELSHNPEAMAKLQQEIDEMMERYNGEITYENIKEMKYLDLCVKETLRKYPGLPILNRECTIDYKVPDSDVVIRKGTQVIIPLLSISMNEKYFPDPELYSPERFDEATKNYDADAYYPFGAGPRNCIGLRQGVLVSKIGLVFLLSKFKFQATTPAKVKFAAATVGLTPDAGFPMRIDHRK
T1 sequence (Q86QH5 1-679 partner): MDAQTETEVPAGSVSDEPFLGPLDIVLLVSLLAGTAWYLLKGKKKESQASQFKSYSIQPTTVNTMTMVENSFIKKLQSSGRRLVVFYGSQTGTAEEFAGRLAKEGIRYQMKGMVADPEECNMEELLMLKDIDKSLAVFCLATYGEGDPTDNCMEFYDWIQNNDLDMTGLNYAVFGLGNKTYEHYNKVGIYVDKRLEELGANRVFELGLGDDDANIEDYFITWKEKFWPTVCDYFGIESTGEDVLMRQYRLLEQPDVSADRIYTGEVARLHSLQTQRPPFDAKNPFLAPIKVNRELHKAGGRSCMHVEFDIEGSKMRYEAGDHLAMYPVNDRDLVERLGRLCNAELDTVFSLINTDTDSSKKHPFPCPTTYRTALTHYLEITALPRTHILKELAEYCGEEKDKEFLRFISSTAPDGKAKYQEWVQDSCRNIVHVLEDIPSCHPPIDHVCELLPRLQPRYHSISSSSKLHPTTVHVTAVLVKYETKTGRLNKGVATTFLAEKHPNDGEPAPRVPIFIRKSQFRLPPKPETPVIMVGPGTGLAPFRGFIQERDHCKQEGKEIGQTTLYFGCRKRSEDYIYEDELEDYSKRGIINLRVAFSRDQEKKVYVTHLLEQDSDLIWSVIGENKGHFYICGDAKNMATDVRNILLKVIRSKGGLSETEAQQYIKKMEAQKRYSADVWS

[2] = substrate: CCOc1ccc2ccc(=O)oc2c1; assay: 7-hydroxycoumarin fluorescence (O-de-ethylation), yeast microsomes; format: biochemical, Aedes aegypti; conditions: apparent, 0.1 mM NADPH with regeneration system, 0.1 M phosphate pH 7.4, 30°C, 15 min
From the text: 7-hydroxycoumarin fluorescence (O-de-ethylation), yeast microsomes on CYP6Z8 (W(AeR)-CYP6Z8 microsomes; CYP6Z8v1)

[3] = substrate: CCOc1ccc2nc3ccc(=O)cc-3oc2c1; assay: resorufin fluorescence, yeast microsomes; format: biochemical, Aedes aegypti; conditions: apparent, 0.1 mM NADPH with regeneration system, 0.1 M phosphate pH 7.4, 30°C, 15 min
From the text: (§1) resorufin fluorescence, yeast microsomes on CYP6Z8 (W(AeR)-CYP6Z8 microsomes; CYP6Z8v1)

[4] = substrate: CCCCCOc1ccc2nc3ccc(=O)cc-3oc2c1; assay: resorufin fluorescence, yeast microsomes; format: biochemical, Aedes aegypti; conditions: apparent, 0.1 mM NADPH with regeneration system, 0.1 M phosphate pH 7.4, 30°C, 15 min
From the text: as §1

[5] = substrate: O=c1ccc2nc3ccc(OCc4ccccc4)cc3oc-2c1; assay: resorufin fluorescence, yeast microsomes; format: biochemical, Aedes aegypti; conditions: apparent, 0.1 mM NADPH with regeneration system, 0.1 M phosphate pH 7.4, 30°C, 15 min
From the text: as §1

[6] = substrate: OCc1cccc(Oc2ccccc2)c1; assay: reverse-phase HPLC, yeast microsomes; format: biochemical, Aedes aegypti; conditions: 0.1 mM NADPH with regeneration system, 5 mM MgCl2, 30°C

Molecule: OCc1cccc(Oc2ccccc2)c1 [PBAlc]
- reverse-phase HPLC, E. coli membranes [1]: demonstrated the ability of CYP6Z2 to metabolize both PBAlc and PBAld

Molecule: O=Cc1cccc(Oc2ccccc2)c1 [PBAld]
- reverse-phase HPLC, E. coli membranes [1]: demonstrated the ability of CYP6Z2 to metabolize both PBAlc and PBAld

B1: CYP6Z8 (W(AeR)-CYP6Z8 microsomes; CYP6Z8v1) (Aedes aegypti) (protein)
chain: MFIYTFALFWLAVAFAIRYIYSYWDRNGLPSIKPHIPYGNLKTVANRTESFGVATCDLYWKSKDRLVGIYLFFRPAVLIRDAHLAQQIMTTDFSHFHDRGVFCNEEVDPFSANLFALAGKRWRNLRNKFTPLFTGGQLRCMMPTILNVGHKLQNVLEPAAKKQEVLEIRELVSRCVLDIIASVFFGFEANCINDPNDAFIQNLRELQYDGFFNNLRAAATFICPELLKLTRISSLSPEMIRFVTDIVTKQIEHREKNNVTRKDFIQLLIDLRREDANNNEATLGLEECAANVFLFYVAGSDTSTSAVAFTLHELTQNVETMEKLQTEIDEMLVKTSGELTYDGIKEMSYLDLCVKETLRKYPGLAILNRECTKSYAVPNSNIVLKKGTQVVIPLLAYGMDEKYFPEPDRYLPERFDKSTKNYDEKAFYPFGEGPRNCIAFRMGVMVSKICLVLLLSRFNFEATRGPKINFTPSTVALLPKGGIPVKISIR
notes: full-length, no protein modification; codon-optimised gene in S. cerevisiae W(AeR) with Ae. aegypti CPR integrated; microsomes; with NADPH--cytochrome P450 reductase
- Km [2]: 5.90 ± 0.90 µM
- kcat [2]: 0.0163 ± 0.00067 s⁻¹
- Km [3]: 2.39 ± 0.28 µM
- kcat [3]: 0.0198 ± 0.00083 s⁻¹
- Km [4]: 13.96 ± 3.14 µM
- kcat [4]: 0.00217 ± 0.00017 s⁻¹
- Km [5]: 0.13 ± 0.02 µM
- kcat [5]: 0.00162 ± 3.3e-05 s⁻¹
- Km [6]: 15.1 ± 2.9 µM
- kcat [6]: 0.011 ± 0.0005 s⁻¹
